Experimental data from EP4814011A1 (Shanghai Huaota Biopharmaceutical Co., Ltd., dated 2026).

T1: Trypsin inhibitor type 1-S from Glycine max (Glycine max, UniProt P01070 25-205)
T1 construct: Amine coupled to a CM5 chip
T1 sequence (looked up): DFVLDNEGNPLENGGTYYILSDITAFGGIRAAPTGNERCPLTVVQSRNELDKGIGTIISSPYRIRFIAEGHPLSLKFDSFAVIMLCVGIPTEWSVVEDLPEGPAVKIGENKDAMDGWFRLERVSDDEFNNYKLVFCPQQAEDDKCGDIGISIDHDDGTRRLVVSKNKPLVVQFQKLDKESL

B1: 900792-huH2L2 (antibody, human IgG1, kappa, L234A L235A, V domains shown)
VH: QVQLVQSGAEVKKPGASVKVSCKASGYAFTNYLIEWVRQAPGQGLEWMGIINPESGDTYYAQKFQGRVTMTADKSTSTAYMELSSLRSEDSAVYFCAKESLTGSSYDYWGQGTTLTVSS
VL: DIQMTQSPSSLSASVGDRVTITCRASENIYSNLVWYQQKPGKAPQLLVYGARNLQSGVPSRFSGSGSGTQFSLTISSLQPEDFATYYCQHFYETPLTFGTGTKLEIKR
notes: Humanized
B2: 900792-huH3L3 (antibody, human IgG1, kappa, L234A L235A, V domains shown)
VH: QVQLQQSGAEVKKPGASVKVSCKASGYAFTNYLIEWVRQAPGQGLEWMGVINPESGDTYYSQKFQGRVTMTADKSTSTAYMELSSLRSEDSAVYFCAKESLTGSSYDYWGQGTTLTVSS
VL: DIQMTQSPSSLSASVGDRVTITCRASENIYSNLVWYQQKPGKAPQLLIYGARNLQSGVPSRFSGSGSGTQFTLTISSLQPEDFATYYCQHFYETPLTFGTGTKLEIKR
notes: Humanized
B3: 900792-huH1L1 (antibody, human IgG1, kappa, L234A L235A, V domains shown)
VH: QVQLQQSGAEVKKPGASVKVSCKASGYAFTNYLIEWVRQAPGQGLEWIGVINPESGDTYYSEKFQGRVTLTADKSTSTAYMELSSLRSEDSAVYFCAKESLTGSSYDYWGQGTTLTVSS
VL: DIQMTQSPSSLSASVGDRVTITCRASENIYSNLVWYQQKPGKAPQLLVYGARNLADGVPSRFSGSGSGTQFSLTISSLQPEDFATYYCQHFYETPLTFGTGTKLEIKR
notes: Humanized
B4: 900792-huH4L1 (antibody, human IgG1, kappa, L234A L235A, V domains shown)
VH: QVQLVQSGAEVKKPGASVKVSCKASGYAFTNYLIEWVRQAPGQGLEWMGIINPESGDTYYAQKFQGRVTLTADKSTSTAYMELSSLRSEDSAVYYCAKESLTGSSYDYWGQGTTLTVSS
VL: DIQMTQSPSSLSASVGDRVTITCRASENIYSNLVWYQQKPGKAPQLLVYGARNLADGVPSRFSGSGSGTQFSLTISSLQPEDFATYYCQHFYETPLTFGTGTKLEIKR
notes: Humanized
B5: 900792-huH1L3 (antibody, human IgG1, kappa, L234A L235A, V domains shown)
VH: QVQLQQSGAEVKKPGASVKVSCKASGYAFTNYLIEWVRQAPGQGLEWIGVINPESGDTYYSEKFQGRVTLTADKSTSTAYMELSSLRSEDSAVYFCAKESLTGSSYDYWGQGTTLTVSS
VL: DIQMTQSPSSLSASVGDRVTITCRASENIYSNLVWYQQKPGKAPQLLIYGARNLQSGVPSRFSGSGSGTQFTLTISSLQPEDFATYYCQHFYETPLTFGTGTKLEIKR
notes: Humanized
B6: 900792-huH2L1 (antibody, human IgG1, kappa, L234A L235A, V domains shown)
VH: QVQLVQSGAEVKKPGASVKVSCKASGYAFTNYLIEWVRQAPGQGLEWMGIINPESGDTYYAQKFQGRVTMTADKSTSTAYMELSSLRSEDSAVYFCAKESLTGSSYDYWGQGTTLTVSS
VL: DIQMTQSPSSLSASVGDRVTITCRASENIYSNLVWYQQKPGKAPQLLVYGARNLADGVPSRFSGSGSGTQFSLTISSLQPEDFATYYCQHFYETPLTFGTGTKLEIKR
notes: Humanized
B7: 900792-huH2L3 (antibody, human IgG1, kappa, L234A L235A, V domains shown)
VH: QVQLVQSGAEVKKPGASVKVSCKASGYAFTNYLIEWVRQAPGQGLEWMGIINPESGDTYYAQKFQGRVTMTADKSTSTAYMELSSLRSEDSAVYFCAKESLTGSSYDYWGQGTTLTVSS
VL: DIQMTQSPSSLSASVGDRVTITCRASENIYSNLVWYQQKPGKAPQLLIYGARNLQSGVPSRFSGSGSGTQFTLTISSLQPEDFATYYCQHFYETPLTFGTGTKLEIKR
notes: Humanized
B8: 900792-huH3L1 (antibody, human IgG1, kappa, L234A L235A, V domains shown)
VH: QVQLQQSGAEVKKPGASVKVSCKASGYAFTNYLIEWVRQAPGQGLEWMGVINPESGDTYYSQKFQGRVTMTADKSTSTAYMELSSLRSEDSAVYFCAKESLTGSSYDYWGQGTTLTVSS
VL: DIQMTQSPSSLSASVGDRVTITCRASENIYSNLVWYQQKPGKAPQLLVYGARNLADGVPSRFSGSGSGTQFSLTISSLQPEDFATYYCQHFYETPLTFGTGTKLEIKR
notes: Humanized
B9: 900792-huH3L2 (antibody, human IgG1, kappa, L234A L235A, V domains shown)
VH: QVQLQQSGAEVKKPGASVKVSCKASGYAFTNYLIEWVRQAPGQGLEWMGVINPESGDTYYSQKFQGRVTMTADKSTSTAYMELSSLRSEDSAVYFCAKESLTGSSYDYWGQGTTLTVSS
VL: DIQMTQSPSSLSASVGDRVTITCRASENIYSNLVWYQQKPGKAPQLLVYGARNLQSGVPSRFSGSGSGTQFSLTISSLQPEDFATYYCQHFYETPLTFGTGTKLEIKR
notes: Humanized
B10: 900792-huH1L2 (antibody, human IgG1, kappa, L234A L235A, V domains shown)
VH: QVQLQQSGAEVKKPGASVKVSCKASGYAFTNYLIEWVRQAPGQGLEWIGVINPESGDTYYSEKFQGRVTLTADKSTSTAYMELSSLRSEDSAVYFCAKESLTGSSYDYWGQGTTLTVSS
VL: DIQMTQSPSSLSASVGDRVTITCRASENIYSNLVWYQQKPGKAPQLLVYGARNLQSGVPSRFSGSGSGTQFSLTISSLQPEDFATYYCQHFYETPLTFGTGTKLEIKR
notes: Humanized
B11: 900792 chimera (antibody, human IgG1, kappa, L234A L235A, V domains shown)
VH: QVQLQQSGAELVRPGTSVKVSCKASGYAFTNYLIEWVKQRPGQGLEWIGVINPESGDTYYSEKFKGKATLTADKSSSTAYMQLSSLTSEDSAVYFCAKESLTGSSYDYWGQGTTLTVSS
VL: DIQMTQSPASLSASVGESVTITCRASENIYSNLVWYQQKQGKSPQLLVYGARNLADGVPSRFSGSGSGTQFSLKINSLQPEDFGNYYCQHFYETPLTFGTGTKLEIKR
notes: Human-mouse chimera of clone 77E6; human IgG1 constant region with L234A and L235A (Eu), human kappa

Legend:
[1] = biological target: Human TSLP (form and source not stated) (human, UniProt Q969D9 29-159, limits assumed); assay: cell-based or functional assay
[2] = biological target: T2, Lysozyme solution from chicken egg (chicken, UniProt P00698 19-147); assay: SPR, protein coupled to CM5
T2 construct: Amine coupled to a CM5 chip
T2 sequence (P00698 19-147 limits assumed): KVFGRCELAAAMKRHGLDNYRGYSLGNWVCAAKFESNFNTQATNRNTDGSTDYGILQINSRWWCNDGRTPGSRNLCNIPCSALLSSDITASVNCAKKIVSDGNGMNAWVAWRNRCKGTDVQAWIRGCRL

[3] = biological target: T1, Trypsin inhibitor type 1-S from Glycine …; assay: SPR, protein coupled to CM5
[4] = biological target: T3, human TSLP with His tag (ACRO, TSP-H52Ha) (human, UniProt Q969D9 29-159); assay: SPR, His-TSLP captured on anti-His CM5, antibody analyte
T3 construct: Bought protein; also called human TSLP antigens; Human TSLP (Acro, #TSP-H52Ha); not shown: His tag

[5] = biological target: T4, monkey TSLP antigen (R127A, R130S) Protein, His Tag (ACRO, Cat#: TSP-C52H4) (monkey, UniProt A0A7N9CAT7 29-159); assay: as above
T4 construct: Bought protein
T4 sequence (A0A7N9CAT7 entry or part of it R127A R130S R127A R130S limits assumed, form in doubt): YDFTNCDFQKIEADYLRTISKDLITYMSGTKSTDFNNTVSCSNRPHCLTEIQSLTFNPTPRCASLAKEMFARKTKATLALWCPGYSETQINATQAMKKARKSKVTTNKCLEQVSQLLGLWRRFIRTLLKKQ

Binder	TARC in PBMC supernatant (ELISA) [1]	binding response (RU) [2] [RU]	binding response (RU) [3] [RU]	Kd [4] [nM]	koff [4] [s⁻¹]	kon [4] [M⁻¹ s⁻¹]	Kd [5] [nM]	koff [5] [s⁻¹]	kon [5] [M⁻¹ s⁻¹]
B1	~10 times better than Tezepelumab	1.4	6.8	0.172	0.000126	733000	5.06	0.0165	3.27e+06
B2	~10 times better than Tezepelumab	1.9	8.7	0.189	0.000143	755000	6.01	0.087	1.45e+07
B3	~10 times better than Tezepelumab	1.8	5.7	0.126	9.45e-05	748000	8.16	0.00339	416000
B4	~10 times better than Tezepelumab	4	9.6	0.117	8.15e-05	694000	4.17	0.00873	2.09e+06
B5	~10 times better than Tezepelumab	1	5.9	0.0964	7.02e-05	728000	7.99	0.00321	402000
B6	~10 times better than Tezepelumab	0.8	6.9	0.141	0.00011	782000	3.82	0.0122	3.19e+06
B7	~10 times better than Tezepelumab	5.9	6.8	0.172	0.000126	733000	5.88	0.0189	3.22e+06
B8	~10 times better than Tezepelumab	0.9	5.6	0.175	0.000129	737000	6.22	0.0362	5.82e+06
B9	~10 times better than Tezepelumab	1.5	8.1	0.131	0.000108	822000	5.05	0.0327	6.47e+06
B10	~10 times better than Tezepelumab	2	6	0.176	0.000126	713000	8.23	0.00274	333000
B11		2.1	7.2	0.223	0.000157	703000	4.58	0.0159	3.47e+06
